Results: patent US20210347913A1 (published 2021)

T1: PTK7 on PTK7 positive cell line SaOS-2 (osteosarcoma) (UniProt Q13308 31-1070)
T1 chain: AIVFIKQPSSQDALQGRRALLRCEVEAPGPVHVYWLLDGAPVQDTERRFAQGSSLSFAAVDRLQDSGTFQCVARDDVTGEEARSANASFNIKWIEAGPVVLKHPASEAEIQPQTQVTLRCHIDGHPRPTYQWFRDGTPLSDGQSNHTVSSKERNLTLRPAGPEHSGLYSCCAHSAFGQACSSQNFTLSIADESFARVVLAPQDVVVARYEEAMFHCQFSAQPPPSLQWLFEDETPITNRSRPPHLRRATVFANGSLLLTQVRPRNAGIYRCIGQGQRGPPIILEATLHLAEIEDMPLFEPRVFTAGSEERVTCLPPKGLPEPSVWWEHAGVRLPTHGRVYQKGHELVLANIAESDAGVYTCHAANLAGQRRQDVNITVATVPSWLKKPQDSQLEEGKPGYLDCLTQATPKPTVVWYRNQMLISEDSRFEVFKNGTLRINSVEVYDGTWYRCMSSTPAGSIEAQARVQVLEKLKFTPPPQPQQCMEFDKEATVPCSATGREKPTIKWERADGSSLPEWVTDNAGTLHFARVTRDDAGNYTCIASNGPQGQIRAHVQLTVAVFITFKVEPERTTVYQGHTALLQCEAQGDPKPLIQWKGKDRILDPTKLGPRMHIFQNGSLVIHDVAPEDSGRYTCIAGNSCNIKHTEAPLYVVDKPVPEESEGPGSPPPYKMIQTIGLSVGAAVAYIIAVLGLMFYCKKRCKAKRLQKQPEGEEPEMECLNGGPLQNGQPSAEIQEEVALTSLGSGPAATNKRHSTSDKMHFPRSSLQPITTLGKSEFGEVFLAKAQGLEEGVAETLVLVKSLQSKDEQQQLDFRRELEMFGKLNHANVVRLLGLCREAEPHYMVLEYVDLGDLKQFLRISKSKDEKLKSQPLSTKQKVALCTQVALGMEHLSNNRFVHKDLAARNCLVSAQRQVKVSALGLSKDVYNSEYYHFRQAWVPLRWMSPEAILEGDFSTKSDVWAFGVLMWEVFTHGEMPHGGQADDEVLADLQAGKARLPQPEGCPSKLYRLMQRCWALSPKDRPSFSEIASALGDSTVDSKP


Tests used:
[1] = target: T1, PTK7 on PTK7 positive cell line SaOS-2 …; test: FACS binding SaOS-2; -MMP14
[2] = target: T1, PTK7 on PTK7 positive cell line SaOS-2 …; test: FACS binding SaOS-2
[3] = target: T1, PTK7 on PTK7 positive cell line SaOS-2 …; test: FACS binding SaOS-2; +MMP14

EC50 [1] [nM]	EC50 [2] [nM]	EC50 [3] [nM]	Binder
58.6	40.9	0.38	181 M13 (antibody) QGCTYPPRFHMHWLCGSSGGSGGSGGSGGGPLGLAGGSSGQVQLVESGGGVVQPGRSLRLSCAASGFTFSSYGMHWVRQAPGKGLEWVAVIWDDGSNKYYVDSVKGRFTISRDNSKNTLYLQMNSLRAEDTAVYYCARDDYYGSGSFNSYYGTDVWGQGTTVTVSSGGGGSGGGGSGGGGSEIVLTQSPATLSLSPGERATLSCRASQSVSIYLAWYQQKPGQAPRLLIYDASNRATGIPARFSGSGSGTDFTLTISSLEPEDFAVYYCQQRSNWPPFTFGPGTKVDIKSAAAFVPVFLPAKPTTTPAPRPPTPAPTIASQPLSLRPEACRPAAGGAVHTRGLDFACDIYIWAPLAGTCGVLLLSLVITLYCNHRNRSKRSRLLHSDYMNMTPRRPGPTRKHYQPYAPPRDFAAYRSRVKFSRSADAPAYQQGQNQLYNELNLGRREEYDVLDKRRGRDPEMGGKPRRKNPQEGLYNELQKDKMAEAYSEIGMKGERRRGKGHDGLYQGLSTATKDTYDALHMQALPPR
	29.9		181 M5 (antibody) QGCTYPSWVAYIRFCGSSGGSGGSGGSGGGPLGLAGGSSGQVQLVESGGGVVQPGRSLRLSCAASGFTFSSYGMHWVRQAPGKGLEWVAVIWDDGSNKYYVDSVKGRFTISRDNSKNTLYLQMNSLRAEDTAVYYCARDDYYGSGSFNSYYGTDVWGQGTTVTVSSGGGGSGGGGSGGGGSEIVLTQSPATLSLSPGERATLSCRASQSVSIYLAWYQQKPGQAPRLLIYDASNRATGIPARFSGSGSGTDFTLTISSLEPEDFAVYYCQQRSNWPPFTFGPGTKVDIKSAAAFVPVFLPAKPTTTPAPRPPTPAPTIASQPLSLRPEACRPAAGGAVHTRGLDFACDIYIWAPLAGTCGVLLLSLVITLYCNHRNRSKRSRLLHSDYMNMTPRRPGPTRKHYQPYAPPRDFAAYRSRVKFSRSADAPAYQQGQNQLYNELNLGRREEYDVLDKRRGRDPEMGGKPRRKNPQEGLYNELQKDKMAEAYSEIGMKGERRRGKGHDGLYQGLSTATKDTYDALHMQALPPR
	30.5		181 M6 (antibody) QGVCTYPPAHRTRFCGSSGGSGGSGGSGGGPLGLAGGSSGQVQLVESGGGVVQPGRSLRLSCAASGFTFSSYGMHWVRQAPGKGLEWVAVIWDDGSNKYYVDSVKGRFTISRDNSKNTLYLQMNSLRAEDTAVYYCARDDYYGSGSFNSYYGTDVWGQGTTVTVSSGGGGSGGGGSGGGGSEIVLTQSPATLSLSPGERATLSCRASQSVSIYLAWYQQKPGQAPRLLIYDASNRATGIPARFSGSGSGTDFTLTISSLEPEDFAVYYCQQRSNWPPFTFGPGTKVDIKSAAAFVPVFLPAKPTTTPAPRPPTPAPTIASQPLSLRPEACRPAAGGAVHTRGLDFACDIYIWAPLAGTCGVLLLSLVITLYCNHRNRSKRSRLLHSDYMNMTPRRPGPTRKHYQPYAPPRDFAAYRSRVKFSRSADAPAYQQGQNQLYNELNLGRREEYDVLDKRRGRDPEMGGKPRRKNPQEGLYNELQKDKMAEAYSEIGMKGERRRGKGHDGLYQGLSTATKDTYDALHMQALPPR
	93.8		181 M12 (antibody) QGCTMPVHTYSQWLCGSSGGSGGSGGSGGGPLGLAGGSSGQVQLVESGGGVVQPGRSLRLSCAASGFTFSSYGMHWVRQAPGKGLEWVAVIWDDGSNKYYVDSVKGRFTISRDNSKNTLYLQMNSLRAEDTAVYYCARDDYYGSGSFNSYYGTDVWGQGTTVTVSSGGGGSGGGGSGGGGSEIVLTQSPATLSLSPGERATLSCRASQSVSIYLAWYQQKPGQAPRLLIYDASNRATGIPARFSGSGSGTDFTLTISSLEPEDFAVYYCQQRSNWPPFTFGPGTKVDIKSAAAFVPVFLPAKPTTTPAPRPPTPAPTIASQPLSLRPEACRPAAGGAVHTRGLDFACDIYIWAPLAGTCGVLLLSLVITLYCNHRNRSKRSRLLHSDYMNMTPRRPGPTRKHYQPYAPPRDFAAYRSRVKFSRSADAPAYQQGQNQLYNELNLGRREEYDVLDKRRGRDPEMGGKPRRKNPQEGLYNELQKDKMAEAYSEIGMKGERRRGKGHDGLYQGLSTATKDTYDALHMQALPPR
	118		181 M7 (antibody) QGCTMPYHIHSIGLCGSSGGSGGSGGSGGGPLGLAGGSSGQVQLVESGGGVVQPGRSLRLSCAASGFTFSSYGMHWVRQAPGKGLEWVAVIWDDGSNKYYVDSVKGRFTISRDNSKNTLYLQMNSLRAEDTAVYYCARDDYYGSGSFNSYYGTDVWGQGTTVTVSSGGGGSGGGGSGGGGSEIVLTQSPATLSLSPGERATLSCRASQSVSIYLAWYQQKPGQAPRLLIYDASNRATGIPARFSGSGSGTDFTLTISSLEPEDFAVYYCQQRSNWPPFTFGPGTKVDIKSAAAFVPVFLPAKPTTTPAPRPPTPAPTIASQPLSLRPEACRPAAGGAVHTRGLDFACDIYIWAPLAGTCGVLLLSLVITLYCNHRNRSKRSRLLHSDYMNMTPRRPGPTRKHYQPYAPPRDFAAYRSRVKFSRSADAPAYQQGQNQLYNELNLGRREEYDVLDKRRGRDPEMGGKPRRKNPQEGLYNELQKDKMAEAYSEIGMKGERRRGKGHDGLYQGLSTATKDTYDALHMQALPPR
	68.8		181 M14 (antibody) QGCTHVAQWAIKAFCGSSGGSGGSGGSGGGPLGLAGGSSGQVQLVESGGGVVQPGRSLRLSCAASGFTFSSYGMHWVRQAPGKGLEWVAVIWDDGSNKYYVDSVKGRFTISRDNSKNTLYLQMNSLRAEDTAVYYCARDDYYGSGSFNSYYGTDVWGQGTTVTVSSGGGGSGGGGSGGGGSEIVLTQSPATLSLSPGERATLSCRASQSVSIYLAWYQQKPGQAPRLLIYDASNRATGIPARFSGSGSGTDFTLTISSLEPEDFAVYYCQQRSNWPPFTFGPGTKVDIKSAAAFVPVFLPAKPTTTPAPRPPTPAPTIASQPLSLRPEACRPAAGGAVHTRGLDFACDIYIWAPLAGTCGVLLLSLVITLYCNHRNRSKRSRLLHSDYMNMTPRRPGPTRKHYQPYAPPRDFAAYRSRVKFSRSADAPAYQQGQNQLYNELNLGRREEYDVLDKRRGRDPEMGGKPRRKNPQEGLYNELQKDKMAEAYSEIGMKGERRRGKGHDGLYQGLSTATKDTYDALHMQALPPR
	141		181 M9 (antibody) QGCHIGKRPVPCLWIGSSGGSGGSGGSGGGPLGLAGGSSGQVQLVESGGGVVQPGRSLRLSCAASGFTFSSYGMHWVRQAPGKGLEWVAVIWDDGSNKYYVDSVKGRFTISRDNSKNTLYLQMNSLRAEDTAVYYCARDDYYGSGSFNSYYGTDVWGQGTTVTVSSGGGGSGGGGSGGGGSEIVLTQSPATLSLSPGERATLSCRASQSVSIYLAWYQQKPGQAPRLLIYDASNRATGIPARFSGSGSGTDFTLTISSLEPEDFAVYYCQQRSNWPPFTFGPGTKVDISAAAFVPVFLPAKPTTTPAPRPPTPAPTIASQPLSLRPEACRPAAGGAVHTRGLDFACDIYIWAPLAGTCGVLLLSLVITLYCNHRNRSKRSRLLHSDYMNMTPRRPGPTRKHYQPYAPPRDFAAYRSRVKFSRSADAPAYQQGQNQLYNELNLGRREEYDVLDKRRGRDPEMGGKPRRKNPQEGLYNELQKDKMAEAYSEIGMKGERRRGKGHDGLYQGLSTATKDTYDALHMQALPPR
434	1350	0.49	181 M10 (antibody) QGCYIGLRMVPCFHMGSSGGSGGSGGSGGGPLGLAGGSSGQVQLVESGGGVVQPGRSLRLSCAASGFTFSSYGMHWVRQAPGKGLEWVAVIWDDGSNKYYVDSVKGRFTISRDNSKNTLYLQMNSLRAEDTAVYYCARDDYYGSGSFNSYYGTDVWGQGTTVTVSSGGGGSGGGGSGGGGSEIVLTQSPATLSLSPGERATLSCRASQSVSIYLAWYQQKPGQAPRLLIYDASNRATGIPARFSGSGSGTDFTLTISSLEPEDFAVYYCQQRSNWPPFTFGPGTKVDIKSAAAFVPVFLPAKPTTTPAPRPPTPAPTIASQPLSLRPEACRPAAGGAVHTRGLDFACDIYIWAPLAGTCGVLLLSLVITLYCNHRNRSKRSRLLHSDYMNMTPRRPGPTRKHYQPYAPPRDFAAYRSRVKFSRSADAPAYQQGQNQLYNELNLGRREEYDVLDKRRGRDPEMGGKPRRKNPQEGLYNELQKDKMAEAYSEIGMKGERRRGKGHDGLYQGLSTATKDTYDALHMQALPPR
	222		181 M11 (antibody) QGCTMPSHAVASFLCGSSGGSGGSGGSGGGPLGLAGGSSGQVQLVESGGGVVQPGRSLRLSCAASGFTFSSYGMHWVRQAPGKGLEWVAVIWDDGSNKYYVDSVKGRFTISRDNSKNTLYLQMNSLRAEDTAVYYCARDDYYGSGSFNSYYGTDVWGQGTTVTVSSGGGGSGGGGSGGGGSEIVLTQSPATLSLSPGERATLSCRASQSVSIYLAWYQQKPGQAPRLLIYDASNRATGIPARFSGSGSGTDFTLTISSLEPEDFAVYYCQQRSNWPPFTFGPGTKVDIKSAAAFVPVFLPAKPTTTPAPRPPTPAPTIASQPLSLRPEACRPAAGGAVHTRGLDFACDIYIWAPLAGTCGVLLLSLVITLYCNHRNRSKRSRLLHSDYMNMTPRRPGPTRKHYQPYAPPRDFAAYRSRVKFSRSADAPAYQQGQNQLYNELNLGRREEYDVLDKRRGRDPEMGGKPRRKNPQEGLYNELQKDKMAEAYSEIGMKGERRRGKGHDGLYQGLSTATKDTYDALHMQALPPR
